The record followed here is article PMC2175313.

Data set [1] has as its system C.PvuII. In words: EMSA.
The subject of data set [2] is C.PvuII. In words: competition.

On to “WWWW C-box 126-mer (symmetrized, spacer TGTA)”, for which the K half in the data set on C.PvuII [1] was determined as 200 nM.

Take WWRR C-box 126-mer (OL intact): the binding signal (% loss of shifted WWWW band) with C.PvuII [2] worked out at 95.
